Experiments:
Assay in all cases: two-hybrid library CCmax;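 also: natural log of median RNA to DNA barcode read ratio; higher means stronger binding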
4H2466-AA = biological target: T1, 4H2466-AA; conditions: mean of both orientations
T1 chain: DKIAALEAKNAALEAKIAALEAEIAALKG

4H2165-AA = biological target: T2, 4H2165-AA; conditions: mean of both orientations
T2 chain: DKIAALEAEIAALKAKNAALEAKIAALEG

4H2754-AA = biological target: T3, 4H2754-AA; conditions: mean of both orientations
T3 chain: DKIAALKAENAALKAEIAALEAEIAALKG

4H429-AA = biological target: T4, 4H429-AA; conditions: mean of both orientations
T4 chain: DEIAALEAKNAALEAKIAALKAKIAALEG

4H1867-AA = biological target: T5, 4H1867-AA; conditions: mean of both orientations
T5 chain: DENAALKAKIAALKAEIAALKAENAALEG

4H454-AA = biological target: T6, 4H454-AA; conditions: mean of both orientations
T6 chain: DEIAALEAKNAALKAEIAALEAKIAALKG

4H678-AA = biological target: T7, 4H678-AA; conditions: mean of both orientations
T7 chain: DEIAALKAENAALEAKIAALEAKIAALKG

4H3844-AA = biological target: T8, 4H3844-AA; conditions: mean of both orientations
T8 chain: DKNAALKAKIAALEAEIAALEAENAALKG

4H906-AA = biological target: T9, 4H906-AA; conditions: mean of both orientations
T9 chain: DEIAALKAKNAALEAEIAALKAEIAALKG

4H2729-AA = biological target: T10, 4H2729-AA; conditions: mean of both orientations
T10 chain: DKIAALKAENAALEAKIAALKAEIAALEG

4H2151-AA = biological target: T11, 4H2151-AA; conditions: mean of both orientations
T11 chain: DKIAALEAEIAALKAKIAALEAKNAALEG

4H2505-AA = biological target: T12, 4H2505-AA; conditions: mean of both orientations
T12 chain: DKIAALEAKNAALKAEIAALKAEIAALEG

4H2944-AA = biological target: T13, 4H2944-AA; conditions: mean of both orientations
T13 chain: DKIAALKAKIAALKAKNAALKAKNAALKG

4H3655-AA = biological target: T14, 4H3655-AA; conditions: mean of both orientations
T14 chain: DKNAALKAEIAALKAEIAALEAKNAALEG

4H3627-AA = biological target: T15, 4H3627-AA; conditions: mean of both orientations
T15 chain: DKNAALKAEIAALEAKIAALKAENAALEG

4H2837-AA = biological target: T16, 4H2837-AA; conditions: mean of both orientations
T16 chain: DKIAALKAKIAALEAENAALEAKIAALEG

4H881-AA = biological target: T17, 4H881-AA; conditions: mean of both orientations
T17 chain: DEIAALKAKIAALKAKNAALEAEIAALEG

4H2078-AA = biological target: T18, 4H2078-AA; conditions: mean of both orientations
T18 chain: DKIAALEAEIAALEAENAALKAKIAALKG

4H3112-AA = biological target: T19, 4H3112-AA; conditions: mean of both orientations
T19 chain: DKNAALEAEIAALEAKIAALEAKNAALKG

4H3343-AA = biological target: T20, 4H3343-AA; conditions: mean of both orientations
T20 chain: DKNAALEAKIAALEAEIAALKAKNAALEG

4H2949-AA = biological target: T21, 4H2949-AA; conditions: mean of both orientations
T21 chain: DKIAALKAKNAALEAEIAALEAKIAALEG

4H993-AA = biological target: T22, 4H993-AA; conditions: mean of both orientations
T22 chain: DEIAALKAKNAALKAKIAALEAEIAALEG

4H2642-AA = biological target: T23, 4H2642-AA; conditions: mean of both orientations
T23 chain: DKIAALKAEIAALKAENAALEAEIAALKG

4H2883-AA = biological target: T24, 4H2883-AA; conditions: mean of both orientations
T24 chain: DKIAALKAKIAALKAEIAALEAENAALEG

4H605-AA = biological target: T25, 4H605-AA; conditions: mean of both orientations
T25 chain: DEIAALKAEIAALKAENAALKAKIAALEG

4H48-AA = biological target: T26, 4H48-AA; conditions: mean of both orientations
T26 chain: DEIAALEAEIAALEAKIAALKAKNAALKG

4H780-AA = biological target: T27, 4H780-AA; conditions: mean of both orientations
T27 chain: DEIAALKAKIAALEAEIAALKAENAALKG

4H2190-AA = biological target: T28, 4H2190-AA; conditions: mean of both orientations
T28 chain: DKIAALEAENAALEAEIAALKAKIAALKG

4H317-AA = biological target: T29, 4H317-AA; conditions: mean of both orientations
T29 chain: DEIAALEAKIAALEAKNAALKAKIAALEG

4H335-AA = biological target: T30, 4H335-AA; conditions: mean of both orientations
T30 chain: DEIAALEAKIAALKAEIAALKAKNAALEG

4H3606-AA = biological target: T31, 4H3606-AA; conditions: mean of both orientations
T31 chain: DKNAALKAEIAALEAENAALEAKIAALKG

4H794-AA = biological target: T32, 4H794-AA; conditions: mean of both orientations
T32 chain: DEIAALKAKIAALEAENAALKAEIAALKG

4H2575-AA = biological target: T33, 4H2575-AA; conditions: mean of both orientations
T33 chain: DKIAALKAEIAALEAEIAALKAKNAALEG

4H2277-AA = biological target: T34, 4H2277-AA; conditions: mean of both orientations
T34 chain: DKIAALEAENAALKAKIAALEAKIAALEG

4H566-AA = biological target: T35, 4H566-AA; conditions: mean of both orientations
T35 chain: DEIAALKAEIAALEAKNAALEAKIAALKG

4H1636-AA = biological target: T36, 4H1636-AA
T36 chain: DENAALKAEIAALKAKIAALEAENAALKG

4H2393-AA = biological target: T37, 4H2393-AA; conditions: mean of both orientations
T37 chain: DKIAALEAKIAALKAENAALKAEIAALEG

4H3921-AA = biological target: T38, 4H3921-AA; conditions: mean of both orientations
T38 chain: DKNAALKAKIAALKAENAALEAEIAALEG

4H3427-AA = biological target: T39, 4H3427-AA; conditions: mean of both orientations
T39 chain: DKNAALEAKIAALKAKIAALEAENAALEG

4H717-AA = biological target: T40, 4H717-AA; conditions: mean of both orientations
T40 chain: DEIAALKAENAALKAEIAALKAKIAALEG

4H234-AA = biological target: T41, 4H234-AA; conditions: mean of both orientations
T41 chain: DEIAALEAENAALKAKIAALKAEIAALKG

4H342-AA = biological target: T42, 4H342-AA; conditions: mean of both orientations
T42 chain: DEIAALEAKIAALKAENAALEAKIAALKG

4H2354-AA = biological target: T43, 4H2354-AA; conditions: mean of both orientations
T43 chain: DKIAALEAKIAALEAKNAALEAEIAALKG

4H2617-AA = biological target: T44, 4H2617-AA; conditions: mean of both orientations
T44 chain: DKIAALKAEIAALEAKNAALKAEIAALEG

B1: 4H1636-AA (peptide)
chain: DENAALKAEIAALKAKIAALEAENAALKG
interaction score (4H2466-AA): -2.07 | interaction score (4H2165-AA): -1.82 | interaction score (4H2754-AA): -1.42 | interaction score (4H429-AA): -1.27 | interaction score (4H1867-AA): -0.897 | interaction score (4H454-AA): -1.23 | interaction score (4H678-AA): -1.1 | interaction score (4H3844-AA): -0.519 | interaction score (4H906-AA): -1.91 | interaction score (4H2729-AA): -1.23 | interaction score (4H2151-AA): -0.999 | interaction score (4H2505-AA): -1.47 | interaction score (4H2944-AA): -1.81 | interaction score (4H3655-AA): -0.763 | interaction score (4H3627-AA): -0.519 | interaction score (4H2837-AA): -1.5 | interaction score (4H881-AA): -1.46 | interaction score (4H2078-AA): -1.57 | interaction score (4H3112-AA): -0.658 | interaction score (4H3343-AA): -1.42 | interaction score (4H2949-AA): -1.16 | interaction score (4H993-AA): -1.52 | interaction score (4H2642-AA): -1.33 | interaction score (4H2883-AA): -1.16 | interaction score (4H605-AA): -1.56 | interaction score (4H48-AA): -1.07 | interaction score (4H780-AA): -1.3 | interaction score (4H2190-AA): -0.932 | interaction score (4H317-AA): -1.74 | interaction score (4H335-AA): -1.41 | interaction score (4H3606-AA): -1.17 | interaction score (4H794-AA): -1.68 | interaction score (4H2575-AA): -0.963 | interaction score (4H2277-AA): -1.87 | interaction score (4H566-AA): -1.41 | interaction score (4H1636-AA): 2.39 | interaction score (4H2393-AA): -0.706 | interaction score (4H3921-AA): -1.8 | interaction score (4H3427-AA): -0.846 | interaction score (4H717-AA): -0.951 | interaction score (4H234-AA): -1.95 | interaction score (4H342-AA): -1.29 | interaction score (4H2354-AA): -1.49 | interaction score (4H2617-AA): -1.46
